# Columns and labels:
# rice (Jinjing 818) [1] = experiment: Transgenic rice T0 plantlets in greenhouse sprayed with compound B; type: in vivo
# Description: (§1) Then, the obtained regenerated TO generation transgenic plantlets grew in the greenhouse, and were sprayed with compound B at the growth stage when approximately two leaves unfolded and the third one just appearing. Resistance levels of plants were recorded and evaluated after spraying treatment, wherein, the test results of control Jinjing 818 plants and transgenic Jinjing 818 plants comprising the protein-coding gene of SEQ ID NO: 42 after applying 20 g, 40 g, 60 g, 80 g, 100 g, 120 g/mu (1 mu=1/15 ha) compound B for corresponding days (DAT) are shown in FIG. 2.
# rice (Jinjing 818) [2] = experiment: Transgenic rice seedlings, compound B added to medium at rooting phase; type: in vivo; settings: at least 1 μM compound B in medium (0.5 and 1 μM for SEQ ID NO: 42), 17-26 days
# Description: Plant transformation vectors were constructed, each comprising a recombinant DNA molecule encoding an engineered protein (SEQ ID NO: 42/38/82/86/102/106/126/138/142) with the protein-coding sequence optimized for monocot expression, and rice (Jinjing 818) calli were transformed with these vectors using Agrobacterium tumifaciens and standard methods known in the art. Different concentrations of hormone herbicide compound B were added at the rooting phase of the rice seedlings to test hormone resistance, wherein, the test results of control Jinjing 818 plants and transgenic Jinjing 818 plants comprising the protein-coding gene of SEQ ID NO: 42 after adding 0.5 μM and 1 μM compound B to medium for 19 days are shown in FIG. 1. The test results of control Jinjing 818 plants and transgenic Jinjing 818 plants comprising the protein-coding genes of SEQ ID NO: 38/82/86/102/106/126/138/142 after adding 1 μM compound B to medium are shown in FIG. 5-11.
# soybean = experiment: Transgenic soybeans sprayed with compound C; type: in vivo; settings: for resistance compared with the wild-type soybean: 10 g compound C sprayed
# Description: Engineered proteins were selected for soybean transformation and plant analysis. DNA constructs were transformed into soybeans using Agrobacterium tumifaciens and standard methods known in the art.
# The transformed TO transgenic plantlets grew in the greenhouse. TO generation transgenic plantlets were tested by spraying 10 g compound C. […] T1 generation soybean plant seeds produced by transformation of all constructs were collected, and T1 generation seedlings were tested by spraying 10 g compound C.
# Arabidopsis thaliana [3] = experiment: T2 transgenic Arabidopsis thaliana plants foliage-sprayed with compound B; type: in vivo; settings: foliage-sprayed with 40 g/mu compound B, 12 days
# Description: In addition, compound B was sprayed to test T2 generation Arabidopsis thaliana plants, that were produced by some of the constructs, comprising unique events screened by T1 generation, wherein, the test results of the wild-type Arabidopsis thaliana control plants transformed with RdpA gene and Arabidopsis thaliana plants comprising the protein-coding gene of SEQ ID NO: 42 after being foliage-sprayed with 40 g/mu compound B for 12 days are shown in FIG. 4.
# Arabidopsis thaliana [4] = experiment: T2 transgenic Arabidopsis thaliana seeds screened on compound A medium; type: in vivo; settings: 0.15 μM compound A in medium, 11-24 days
# Description: Engineered proteins were selected for Arabidopsis thaliana transformation and plant analysis. DNA constructs were transformed into Arabidopsis thaliana using Agrobacterium tumifaciens and standard methods known in the art.
# The transformed TO transgenic plantlets grew in the greenhouse. T1 generation Arabidopsis thaliana plant seeds produced by transformation of all constructs were collected after approximately 60 days of growth. Transgenic T1 generation Arabidopsis thaliana plants were screened by adding HYG to medium for T1 generation. T1 plants were selfed to produce seeds of T2 generation Arabidopsis thaliana plants. Wherein, compound A was added to medium to screen and test T2 generation Arabidopsis thaliana plant seeds, that were produced by all constructs, comprising unique events screened by T1 generation.
# [5] = Enzymatic kinetic measurements of purified proteins with compound A as substrate; type: biochemical; settings: purified protein, compound A 0-1000 μM as substrate
# Description: Based on the results of HPLC, representative engineered proteins were selected for protein purification. Further protein characterization, such as Km, Vmax and Kcat, was performed on the 8 engineered proteins from Table 2. Conventional Ni column affinity chromatography was used for protein purification and protein extract purity was assessed by SDS-PAGE analysis. After determining protein concentration by BCA method, enzyme activity was determined.
# [6] = Conversion rate of substrate compound A by E. coli expressing each engineered protein (HPLC, oxygenase activity); type: biochemical; settings: Reaction condition 1: bacteria cultured overnight, substrate compound A and IPTG added to react overnight
# Description: The high-throughput bacterial protein expression was achieved by cloning the synthesized gene that encodes each engineered protein into a bacterial expression vector with a C-terminal histidine tag (His-tag). The vectors were transformed into Escherichia coli (E. coli), and expression of the engineered proteins was induced. E. coli cultures were selected and cultured in centrifuge tubes overnight, meanwhile, added with substrates and IPTG, and the cultures were centrifuged to pellet the bacteria the next day. Alternatively, E. coli cultures were selected and cultured in centrifuge tubes overnight, and centrifuged to pellet the bacteria after adding substrates for reaction the next day. The supernatant of reaction solution was pipetted into a 96-well plate and the absorbance at 510 nm from 4-aminoantipyrine and potassium ferricyanide was measured by an endpoint colorimetric method to detect phenol products. Substrate reduction and product yield were measured by high performance liquid chromatography (HPLC) to detect the oxygenase activity (i.e., enzymatic activity) of the engineered proteins, and the activities of the proteins were compared by calculating conversion rates.
# Conversion rate=(Peak area of initial substrate−Peak area of substrate after reaction)/Peak area of initial substrate*100%
# maize = experiment: T0 transgenic maize plantlets sprayed with 30% glyphosate compound C (25+5) ME; type: in vivo
# Description: Engineered proteins were selected for maize transformation and plant analysis. DNA constructs were transformed into maizes using Agrobacterium tumifaciens and standard methods known in the art.
# The transformed TO transgenic plantlets grew in the greenhouse. TO generation transgenic plantlets were tested by spraying with 150 g, 250 g, 400 g, 600 g, 800 g of 30% glyphosate compound C (25+5) ME.
# rice (Jinjing 818) [7] = experiment: Transgenic rice T0 plantlets in greenhouse sprayed with quizalofop-P-ethyl; type: in vivo; settings: T0 plantlets foliage-sprayed with 5 g, 10 g/mu quizalofop-P-ethyl, 20 DAT
# Description: as §1, with “The” for “Then, the”, “quizalofop-P-ethyl” for “B”, “46” for “42”, “applying 0 g, 5 g, 10 g/mu compound quizalofop-P-ethyl for” for “applying”, “DAT” for “g, 40 g, 60 g, 80 g, 100 g, 120 g/mu (1 mu=1/15 ha) compound B for corresponding days (DAT)”, “12.” for “2.”
Molecule,"drug resistance (tolerance to compound B) compared with wild-type plants (rice (Jinjing 818) [1]; T0 plantlets foliage-sprayed with 20-120 g/mu compound B, tolerance at at least 120 g/mu)","tolerance compared with the wild types (summary) (rice (Jinjing 818) [1]; medicated medium test and greenhouse spraying test for T0 generation, compound B)",drug resistance (tolerance to compound B) compared with wild-type plants (rice (Jinjing 818) [2]),"drug resistance compared with the wild-type soybeans (soybean; T1 generation plantlets, 10 g, 20 g, 40 g, 80 g compound C sprayed, at least 40 g)",drug resistance compared with wild-type plants transformed with RdpA gene (Arabidopsis thaliana [3]),drug resistance compared with wild-type Arabidopsis thaliana (longer roots and larger leaves) (Arabidopsis thaliana [4]),Kcat [5] [S^−1],Km [5] [µM],Vmax [5],Conversion rate [6] [%],drug resistance compared with the wild-type maize (maize; 600 g 30% glyphosate compound C (25+5) ME),phytotoxicity reaction of transgenic plantlets (maize; 600 g of 30% glyphosate compound C (25+5) ME),phytotoxicity reaction of transgenic plantlets (maize; 800 g of 30% glyphosate compound C (25+5) ME),phytotoxicity reaction of transgenic plantlets (maize; concentration below 600 g of 30% glyphosate compound C (25+5) ME),resistance compared with the wild-type soybean (soybean; T0 generation plantlets),resistance compared with the wild-type soybean (soybean; T1 generation seedlings),drug resistance (tolerance to quizalofop-P-ethyl) compared with wild-type plants (rice (Jinjing 818) [7])
SEQ ID NO: 42: RdpA mutant L82H + V187L + F182W + G103L (protein) MHAALSPLSQRFERIAVQPLTGVLGAEITGVDLREPLDDSTWNEILDAFHTYQVIYFPGQAITNEQHIAFSRRFGPVDPVPHLKSIEGYPEVQMIRREANESLRVIGDDWHTDSTFLDAPPAAVVMRAIDVPEHGGDTGFLSMYTAWETLSPTMQATIEGLNVVHSATRVFGSLYQAQNRRWSNTSLKVMDVDAGDRETVHPLVVTHPGSGRKGLYVNQVYCQRIEGMTDAESKPLLQFLYEHATRFDFTCRVRWKKDQVLVWDNLCTMHRAVPDYAGKFRYLTRTTVGGVRPAR,exhibited better drug resistance,exhibited apparent tolerance,exhibited better drug resistance,exhibited better drug resistance,exhibited better drug resistance,exhibited better drug resistance,0.86,81.3,99.6,96.6,,,,,,,
SEQ ID NO: 46: RdpA mutant L82H + V187L + F182W + R104G + T112S (protein) MHAALSPLSQRFERIAVQPLTGVLGAEITGVDLREPLDDSTWNEILDAFHTYQVIYFPGQAITNEQHIAFSRRFGPVDPVPHLKSIEGYPEVQMIRREANESGGVIGDDWHSDSTFLDAPPAAVVMRAIDVPEHGGDTGFLSMYTAWETLSPTMQATIEGLNVVHSATRVFGSLYQAQNRRWSNTSLKVMDVDAGDRETVHPLVVTHPGSGRKGLYVNQVYCQRIEGMTDAESKPLLQFLYEHATRFDFTCRVRWKKDQVLVWDNLCTMHRAVPDYAGKFRYLTRTTVGGVRPAR,,,,,,exhibited better drug resistance,0.15,17.5,35.2,97,better drug resistance,"the stem base was slightly enlarged, the whole plant growth was obviously inhibited, and the plant was in normal condition","the stem base was significantly enlarged, inhibition on the whole plant growth was further intensified, and the leaf color became lighter and lusterless",no apparent phytotoxicity reaction,exhibited apparent resistance,exhibited apparent resistance,exhibited better drug resistance
